Target: integrin αIIbβ3 on platelets of healthy donors (UniProt P08514)
Assay: cell-based or functional assay

Question: How did the IC50, Platelet Aggregation turn out when “^39SRAGK-^46RIPRGDMP-^66RYH (Rho wild-type) (from UniProt P30403 408-475) (ligand)” was run?
Answer: Its IC50, Platelet Aggregation is 83.2 nM.

— patent US20200010516A1
